Data taken from the supplement of paper PMC9170038.

Test system: MS2 coat protein
Experiment: apparent KD of MS2 coat protein; designed switch direction (-1 OFF switch, 1 ON switch): 1; higher = weaker reporter binding
Summary of the method: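 Normalised cluster fluorescence was curve-fitted, and each design's median over clusters is its apparent KD. Before this, SNAP-549-labelled MS2 coat protein was titrated from 0.7 or 1.5 nM, doubling to 3 µM, over RNA switches transcribed on Illumina chips by stalled E. coli RNA polymerase. Titrations had no input, 200 uM small-molecule ligand, or an oligonucleotide input, and steps lasted 0.8–1.5 h (lowest) to 10–20 min (highest).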

[1] = input ligand: microRNA oligo, concentration not stated
[2] = Eterna round: R95, input ligand: microRNA oligo, concentration not stated

## ACAUGAAAUUGAGGAUAUUUUGUACCUACAUGUGACAUGAGGAUCACCCAUGUGGUAAGUAUAAGAAAGAAGGCAAAGAUAUGU [Equivalence 7 - Jieux - Same State NG 2] (Eterna round: R96, puzzle: Same State NG 2)
Input ligand: FMN 200 uM
  apparent KD of MS2 coat protein: 25.6 nM
[1]
  apparent KD of MS2 coat protein: 30.8 nM
Input ligand: none
  apparent KD of MS2 coat protein: 64.9 nM

## ACAUGAGACGGAGGAUAUGUUGUACCUACAUGUGACAUGAGGAUCACCCAUGUGGUAAGUAUGAUACAGAAGGCCGAGAUAUGU [Equivalance 58 - Jieux - Same State NG 2] (Eterna round: R96, puzzle: Same State NG 2)
Input ligand: FMN 200 uM
  apparent KD of MS2 coat protein: 13.6 nM
[1]
  apparent KD of MS2 coat protein: 13.2 nM
Input ligand: none
  apparent KD of MS2 coat protein: 18.9 nM

## ACAUGAGAGAUAGGAUAUCUUGUACCUACAUGUGACAUGAGGAUCACCCAUGUGGUAAGUAUGAGAGAGAAGGAUCAGAUAUGU [Equivalence 36 - Jieux - Same State NG 2] (Eterna round: R96, puzzle: Same State NG 2)
Input ligand: FMN 200 uM
  apparent KD of MS2 coat protein: 14.1 nM
[1]
  apparent KD of MS2 coat protein: 14.3 nM
Input ligand: none
  apparent KD of MS2 coat protein: 21.2 nM

## ACAUGAGAGUGAGGAUAUAUAGUACCUACAUGUGACAUGAGGAUCACCCAUGUGGUAAGUAUGACAUAGAAGGCACAGAUAUGU [Equivalance 100 - Jieux - Same State NG 2] (Eterna round: R96, puzzle: Same State NG 2)
Input ligand: FMN 200 uM
  apparent KD of MS2 coat protein: 37.9 nM
[1]
  apparent KD of MS2 coat protein: 71.4 nM
Input ligand: none
  apparent KD of MS2 coat protein: 84.2 nM

## ACAUGAGAGUGAGGAUAUGGUGUACCUACAUGUGACAUGAGGAUCACCCAUGUGGUAAGUAUGACUCAGAAGGCACAGAUAUGU [Equivalance 77 - Jieux - Same State NG 2] (Eterna round: R96, puzzle: Same State NG 2)
Input ligand: FMN 200 uM
  apparent KD of MS2 coat protein: 16.2 nM
[1]
  apparent KD of MS2 coat protein: 59.4 nM
Input ligand: none
  apparent KD of MS2 coat protein: 103 nM

## ACAUGAGAGUUAGGAUAUGUUGUACCUACAUGUGACAUGAGGAUCACCCAUGUGGUAAGUAUGAGGCAGAAGGGACAGAUAUGU [Equivalence 46 - Jieux - Same State NG 2] (Eterna round: R96, puzzle: Same State NG 2)
Input ligand: FMN 200 uM
  apparent KD of MS2 coat protein: 75.7 nM
[1]
  apparent KD of MS2 coat protein: 51.7 nM
Input ligand: none
  apparent KD of MS2 coat protein: 137 nM

## ACAUGAGGAUCACCCAUGUAACCAAGAGAGAGAGCACGGACGCAGGAUAUGCGGCGACGAGCGGAGCAGAAGGGCGCCUCAUAU [Alacarus NG 3 Attempt 1] (Eterna round: R96, puzzle: Same State NG 3)
Input ligand: FMN 200 uM
  apparent KD of MS2 coat protein: 79.3 nM
[1]
  apparent KD of MS2 coat protein: 52 nM
Input ligand: none
  apparent KD of MS2 coat protein: 109 nM

## ACAUGAGGAUCACCCAUGUAUGCUCAGGAAACUGUGCAACGUGAGGAUAUGGAUCCUAAUUGGAUCCAGAAGGCAUGAAUUAUU [Fiskers NG3ss - 23] (Eterna round: R96, puzzle: Same State NG 3)
Input ligand: FMN 200 uM
  apparent KD of MS2 coat protein: 41.5 nM
[1]
  apparent KD of MS2 coat protein: 170 nM
Input ligand: none
  apparent KD of MS2 coat protein: 418 nM

## ACCCACGACGGAGGAUAUGGGCACUCGGCGGAAUAAACCGCCAUAACAUGAGGAUCACCCAUGUCCCAGAAGGCCGUCGCAAUC [Esdirece] (Eterna round: R96, puzzle: Same State NG 2)
Input ligand: FMN 200 uM
  apparent KD of MS2 coat protein: 109 nM
[1]
  apparent KD of MS2 coat protein: 404 nM
Input ligand: none
  apparent KD of MS2 coat protein: 712 nM

## ACCCGCGACGGAGGAUAUGGGCACUCGGCGAAAUAAACCGCCAUAACAUGAGGAUCACCCAUGUCCCAGAAGGCCGCCGCAAAC [Leatve] (Eterna round: R96, puzzle: Same State NG 2)
Input ligand: FMN 200 uM
  apparent KD of MS2 coat protein: 92.3 nM
[1]
  apparent KD of MS2 coat protein: 255 nM
Input ligand: none
  apparent KD of MS2 coat protein: 505 nM

## ACCCGCGACGGAGGAUAUGGGCACUCGGCGAAAUAAACCGCCAUAACAUGAGGAUCACCCAUGUCCCAGAAGGCCGUCGCAAUC [Anlelaen] (Eterna round: R96, puzzle: Same State NG 2)
Input ligand: FMN 200 uM
  apparent KD of MS2 coat protein: 81 nM
[1]
  apparent KD of MS2 coat protein: 154 nM
Input ligand: none
  apparent KD of MS2 coat protein: 473 nM

## ACGCAGCUGGGUGAGGAUAUCGGUGGUACUACAUGAGGAUCACCCAUGUCCGAAGCUCGGACCUCCGAGAAGGCGCCCGGCUGCG [Soinraesar Omei Mod 3] (puzzle: Same State 2)
[2]
  apparent KD of MS2 coat protein: 184 nM

## ACUAAAACUGCAGGAUAUGUCCGGAACUCCGUUACAGAAGGGCAACGCACUGUUGAGGGCACGACAUGAGGAUCACCCAUGUAG [Eternabot solution 46] (Eterna round: R96, puzzle: Same State NG 1)
Input ligand: FMN 200 uM
  apparent KD of MS2 coat protein: 20.9 nM
[1]
  apparent KD of MS2 coat protein: 22.5 nM
Input ligand: none
  apparent KD of MS2 coat protein: 26.8 nM

## AGAAAACAUGAGGAUCACCCAUGUAUAGUGAAUACAGGAUAUCAUCGACGGAAUAGUUGAUGAGAAGGGUGAUCGC [Gebiatan] (puzzle: Same State 1)
Eterna round: R95, input ligand: FMN 200 uM
  apparent KD of MS2 coat protein: 13.2 nM
[2]
  apparent KD of MS2 coat protein: 14.4 nM
Eterna round: R95, input ligand: none
  apparent KD of MS2 coat protein: 10.4 nM

## AGACACAUGAGGAUCACCCAUGUUACGAGCUUAGCUCGGACACAGGAUAUCCGGUCCUAGAGACCGGAGAAGGGUGGCUGAAAA [Zara MOD2] (Eterna round: R96, puzzle: Same State NG 3)
Input ligand: FMN 200 uM
  apparent KD of MS2 coat protein: 728 nM
[1]
  apparent KD of MS2 coat protein: 212 nM
Input ligand: none
  apparent KD of MS2 coat protein: 587 nM

## AGAGGAGGAGCAGGAUAUUCGAAGGAGGACGUGGAAGAAGGGUUCAUGCGAUGACAUGAGGAUCACCCAUGUACCGCGCGUCGA [AK SSNG1-V2-15] (Eterna round: R96, puzzle: Same State NG 1)
Input ligand: FMN 200 uM
  apparent KD of MS2 coat protein: 381 nM
[1]
  apparent KD of MS2 coat protein: 126 nM
Input ligand: none
  apparent KD of MS2 coat protein: 484 nM

## AGAGGAGGAGCAGGAUAUUCGACGGAGGACGUGGAAGAAGGGUUCAUGCGAUGACAUGAGGAUCACCCAUGUACCGCGCGUCGA [AK SSNG1-V2-15.1] (Eterna round: R96, puzzle: Same State NG 1)
Input ligand: FMN 200 uM
  apparent KD of MS2 coat protein: 143 nM
[1]
  apparent KD of MS2 coat protein: 106 nM
Input ligand: none
  apparent KD of MS2 coat protein: 478 nM

## AGAUCAUGACGAGGAUAUCCGACAUGAGGAUCACCCAUGUAUGUCGGAGGACGCGUACGUCCAAAGGAGAAGGCGUCGUGGUCA [JL SSNG2 1.02] (Eterna round: R96, puzzle: Same State NG 2)
Input ligand: FMN 200 uM
  apparent KD of MS2 coat protein: 17.4 nM
[1]
  apparent KD of MS2 coat protein: 48.4 nM
Input ligand: none
  apparent KD of MS2 coat protein: 100 nM

## AGAUCAUGACGAGGAUAUGCGACAUGAGGAUCACCCAUGUAUGUUGCAGGACGCGUACGUCCAAUGUAGAAGGCGUCGUGGUCA [JL SSNG2 1.05] (Eterna round: R96, puzzle: Same State NG 2)
Input ligand: FMN 200 uM
  apparent KD of MS2 coat protein: 22.8 nM
[1]
  apparent KD of MS2 coat protein: 65.1 nM
Input ligand: none
  apparent KD of MS2 coat protein: 88.7 nM

## AGAUCAUGACGAGGAUAUGGAACAUGAGGAUCACCCAUGUAUGUUCCAUAACGCGAAUGACGAAUCCAGAAGGCGUCGUGGUCA [JL SSNG2 1.10] (Eterna round: R96, puzzle: Same State NG 2)
Input ligand: FMN 200 uM
  apparent KD of MS2 coat protein: 15.6 nM
[1]
  apparent KD of MS2 coat protein: 112 nM
Input ligand: none
  apparent KD of MS2 coat protein: 168 nM

## AGAUCAUGACGAGGAUAUGGUACAUGAGGAUCACCCAUGUAUGUACCACGACGCGUACGUCGAAUCCAGAAGGCGUCAUGGUCA [Mat - Same State NG 2 - JL mod - D17] (Eterna round: R96, puzzle: Same State NG 2)
Input ligand: FMN 200 uM
  apparent KD of MS2 coat protein: 17.8 nM
[1]
  apparent KD of MS2 coat protein: 51.3 nM
Input ligand: none
  apparent KD of MS2 coat protein: 119 nM

## AGAUCAUGACGAGGAUAUGGUACAUGAGGAUCACCCAUGUAUGUACCACGACGCGUACGUCGAAUCCAGAAGGCGUCGUGGUCA [JL SSNG2 1.07] (Eterna round: R96, puzzle: Same State NG 2)
Input ligand: FMN 200 uM
  apparent KD of MS2 coat protein: 23.3 nM
[1]
  apparent KD of MS2 coat protein: 27.7 nM
Input ligand: none
  apparent KD of MS2 coat protein: 41.6 nM
